The series concerns the target T1, rhPTH(1-34)Gly35-OH, P01270.
T1 chain: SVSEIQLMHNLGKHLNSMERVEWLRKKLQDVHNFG

B1: peptidylglycine alpha-amidating monooxygenase expressed by cell line UGL 73-26/M (protein)
chain: FRSPLSVFKRFKETTRSFSNECLGTIGPVTPLDASDFALDIRMPGVTPKESDTYFCMSMRLPVDEEAFVIDFKPRASMDTVHHMLLFGCNMPSSTGSYWFCDEGTCTDKANILYAWARNAPPTRLPKGVGFRVGGETGSKYFVLQVHYGDISAFRDNHKDCSGVSVHLTRVPQPLIAGMYLMMSVDTVIPPGEKVVNADISCQYKMYPMHVFAYRVHTHHLGKVVSGYRVRNGQWTLIGRQNPQLPQAFYPVEHPVDVTFGDILAARCVFTGEGRTEATHIGGTSSDEMCNLYIMYYMEAKYALSFMTCTKNVAPDMFRTIPAEANIPIPVKPDMVMMHGHHKEAENKEKSALMQQPKQGEEEVLEQDFHVEEELDWPGVYLLPGQVSGVALDSKNNLVIFHRGDHVWDGNSFDSKFVYQQRGLGPIEEDTILVIDPNNAEILQSSGKNLFYLPHGLSIDTDGNYWVTDVALHQVFKLDPHSKEGPLLILGRSMQPGSDQNHFCQPTDVAVEPSTGAVFVSDGYCNSRIVQFSPSGKFVTQWGEESSGSSPRPGQFSVPHSLALVPHLDQLCVADRENGRIQCFKTDTKEFVREIKHASFGRNVFAISYIPGFLFAVNGKPYFGDQEPVQGFVMNFSSGEIIDVFKPVRKHFDMPHDIVASEDGTVYIGDAHTNTVWKFTLTEKMEHRSV
Take B1: the “overall yield of rhPTH(1-34)-NH2 from enzymatic amidation (preparative reaction followed by CEX and RP purification)” value is “yielding 11.8 grams (95% overall yield from amidation) of rhPTH(1-34)-NH2”.

Source of the values: patent publication US20060292672.
